Laboratory results as given in IntAct's records for PubMed 31515488.

B1: Ras-related protein Rab-5C (Homo sapiens), P51148 (parent)
chain: MAGRGGAARPNGPAAGNKICQFKLVLLGESAVGKSSLVLRFVKGQFHEYQESTIGAAFLTQTVCLDDTTVKFEIWDTAGQERYHSLAPMYYRGAQAAIVVYDITNTDTFARAKNWVKELQRQASPNIVIALAGNKADLASKRAVEFQEAQAYADDNSLLFMETSAKTAMNVNEIFMAIAKKLPKNEPQNATGAPGRNRGVDLQENNPASRSQCCSN
partner: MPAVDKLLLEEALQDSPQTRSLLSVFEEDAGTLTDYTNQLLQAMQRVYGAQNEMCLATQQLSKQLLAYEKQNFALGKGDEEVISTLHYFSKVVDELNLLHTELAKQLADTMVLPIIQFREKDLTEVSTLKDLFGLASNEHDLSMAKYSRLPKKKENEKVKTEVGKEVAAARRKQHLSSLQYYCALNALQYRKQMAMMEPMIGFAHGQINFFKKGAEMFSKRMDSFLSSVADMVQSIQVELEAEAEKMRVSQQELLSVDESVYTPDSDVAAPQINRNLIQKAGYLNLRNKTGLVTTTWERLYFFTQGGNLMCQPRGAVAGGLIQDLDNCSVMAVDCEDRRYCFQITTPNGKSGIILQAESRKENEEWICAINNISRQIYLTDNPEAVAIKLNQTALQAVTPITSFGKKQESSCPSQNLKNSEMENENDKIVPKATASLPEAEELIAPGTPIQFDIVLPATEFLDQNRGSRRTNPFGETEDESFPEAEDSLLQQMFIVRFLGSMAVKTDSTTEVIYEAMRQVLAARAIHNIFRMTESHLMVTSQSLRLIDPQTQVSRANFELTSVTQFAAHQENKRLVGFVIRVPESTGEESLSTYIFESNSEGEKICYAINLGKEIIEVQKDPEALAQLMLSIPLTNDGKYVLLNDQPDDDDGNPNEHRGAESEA
B2: Mothers against decapentaplegic homolog 4 (Homo sapiens), Q13485 (parent)
chain: MDNMSITNTPTSNDACLSIVHSLMCHRQGGESETFAKRAIESLVKKLKEKKDELDSLITAITTNGAHPSKCVTIQRTLDGRLQVAGRKGFPHVIYARLWRWPDLHKNELKHVKYCQYAFDLKCDSVCVNPYHYERVVSPGIDLSGLTLQSNAPSSMMVKDEYVHDFEGQPSLSTEGHSIQTIQHPPSNRASTETYSTPALLAPSESNATSTANFPNIPVASTSQPASILGGSHSEGLLQIASGPQPGQQQNGFTGQPATYHHNSTTTWTGSRTAPYTPNLPHHQNGHLQHHPPMPPHPGHYWPVHNELAFQPPISNHPAPEYWCSIAYFEMDVQVGETFKVPSSCPIVTVDGYVDPSGGDRFCLGQLSNVHRTEAIERARLHIGKGVQLECKGEGDVWVRCLSDHAVFVQSYYLDREAGRAPGDAVHKIYPSAYIKVFDLRQCHRQMQQQAATAQAAAAAQAAAVAGNIPGPGSVGGIAPAISLSAAAGIGVDDLRRLCILRMSFVKGWGPDYPRQSIKETPCWIEIHLHRALQLLDEVLHTMPIADPQPLD
B3: MIF4G domain-containing protein (Homo sapiens), A9UHW6 (parent)
chain: MGEPSREEYKIQSFDAETQQLLKTALKDPGAVDLEKVANVIVDHSLQDCVFSKEAGRMCYAIIQAESKQAGQSVFRRGLLNRLQQEYQAREQLRARSLQGWVCYVTFICNIFDYLRVNNMPMMALVNPVYDCLFRLAQPDSLSKEEEVDCLVLQLHRVGEQLEKMNGQRMDELFVLIRDGFLLPTGLSSLAQLLLLEIIEFRAAGWKTTPAAHKYYYSEVSD
partner: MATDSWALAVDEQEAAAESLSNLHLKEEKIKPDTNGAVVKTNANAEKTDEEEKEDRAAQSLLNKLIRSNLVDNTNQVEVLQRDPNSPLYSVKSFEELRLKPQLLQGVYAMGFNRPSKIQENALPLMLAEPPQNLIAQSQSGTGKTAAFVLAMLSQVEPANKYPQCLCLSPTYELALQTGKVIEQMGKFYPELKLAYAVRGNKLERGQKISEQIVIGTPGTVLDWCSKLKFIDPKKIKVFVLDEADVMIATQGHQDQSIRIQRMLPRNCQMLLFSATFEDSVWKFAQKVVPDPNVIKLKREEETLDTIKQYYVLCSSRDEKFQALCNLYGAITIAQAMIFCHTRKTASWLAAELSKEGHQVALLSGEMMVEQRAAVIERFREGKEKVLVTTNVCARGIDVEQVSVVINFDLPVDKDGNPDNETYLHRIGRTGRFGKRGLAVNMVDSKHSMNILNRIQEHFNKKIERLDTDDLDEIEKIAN
B4: Isoform 1 of DNA mismatch repair protein Mlh1 (Homo sapiens), P40692-1 (parent)
chain: MSFVAGVIRRLDETVVNRIAAGEVIQRPANAIKEMIENCLDAKSTSIQVIVKEGGLKLIQIQDNGTGIRKEDLDIVCERFTTSKLQSFEDLASISTYGFRGEALASISHVAHVTITTKTADGKCAYRASYSDGKLKAPPKPCAGNQGTQITVEDLFYNIATRRKALKNPSEEYGKILEVVGRYSVHNAGISFSVKKQGETVADVRTLPNASTVDNIRSIFGNAVSRELIEIGCEDKTLAFKMNGYISNANYSVKKCIFLLFINHRLVESTSLRKAIETVYAAYLPKNTHPFLYLSLEISPQNVDVNVHPTKHEVHFLHEESILERVQQHIESKLLGSNSSRMYFTQTLLPGLAGPSGEMVKSTTSLTSSSTSGSSDKVYAHQMVRTDSREQKLDAFLQPLSKPLSSQPQAIVTEDKTDISSGRARQQDEEMLELPAPAEVAAKNQSLEGDTTKGTSEMSEKRGPTSSNPRKRHREDSDVEMVEDDSRKEMTAACTPRRRIINLTSVLSLQEEINEQGHEVLREMLHNHSFVGCVNPQWALAQHQTKLYLLNTTKLSEELFYQILIYDFANFGVLRLSEPAPLFDLAMLALDSPESGWTEEDGPKEGLAEYIVEFLKKKAEMLADYFSLEIDEEGNLIGLPLLIDNYVPPLEGLPIFILRLATEVNWDEEKECFESLSKECAMFYSIRKQYISEESTLSGQQSEVPGSIPNSWKWTVEHIVYKALRSHILPPKHFTEDGNILQLANLPDLYKVFERC

Variants of: B1
Details: with dp13b_human APPL2, Q8NEU8

Variant	effect of a mutation on the interaction
R196Q	with no effect

Variants of: B2
Details: with smad9_human SMAD9, O15198

Variant	effect of a mutation on the interaction
E330K	disrupting interaction strength
C324R	disrupting interaction strength
G352R	disrupting interaction strength
N13S	with no effect
V350D	disrupting interaction strength

Variants of: B2
Details: with smad3_human SMAD3, P84022

Variant	effect of a mutation on the interaction
E330K	disrupting interaction strength
C324R	disrupting interaction strength
G352R	disrupting interaction strength
N13S	with no effect
V350D	disrupting interaction strength

Variants of: B3
Details: with dd19b_human DDX19B

Variant	effect of a mutation on the interaction
E160K	with no effect

Variants of: B4
Details: with msh3_human MSH3, P20585

Variant	effect of a mutation on the interaction
R69K	with no effect

Variants of: B4
Details: with ima1_human KPNA2, P52292

Variant	effect of a mutation on the interaction
R69K	with no effect

Variants of: B4
Details: with psa1_human PSMA1, P25786

Variant	effect of a mutation on the interaction
R69K	with no effect

Variants of: B4
Details: with msh3_human MSH3, P20585
Remark: another data set of the same source

Variant	effect of a mutation on the interaction
V213M	with no effect
S406N	with no effect
A441T	with no effect

Variants of: B4
Details: with ima1_human KPNA2, P52292
Remark: another data set of the same source

Variant	effect of a mutation on the interaction
V213M	with no effect
S406N	with no effect
A441T	with no effect

Variants of: B4
Details: with psa1_human PSMA1, P25786
Remark: another data set of the same source

Variant	effect of a mutation on the interaction
V213M	with no effect
S406N	with no effect
A441T	with no effect
